In assay [1] the target is T1, NSH2 domain (Homo sapiens, UniProt Q06124).
T1 construct: The constructs encoding the isolated NSH2 domain, the isolated CSH2 domain, and the NSH2-CSH2 tandem were subcloned in a pET28b+ plasmid vector; made in house; host or cells: Escherichia coli BL21 (DE3)
T1 sequence (Q06124 6-102 limits assumed): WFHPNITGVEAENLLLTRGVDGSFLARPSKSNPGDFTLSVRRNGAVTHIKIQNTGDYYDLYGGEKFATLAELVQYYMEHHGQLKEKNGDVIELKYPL
In words: Kinetic binding (stopped-flow, FRET Trp-dansyl) to the isolated NSH2 domain. The source says:
In analogy to our previous works, we performed kinetic binding experiments by challenging the NSH2-CSH2 tandem with peptides mimicking different portions of Gab2, namely Gab2_608–620 (binding the NSH2 domain) and Gab2_637–649 (binding the CSH2 domain). From now on, the two peptides will be named, respectively, Gab2N and Gab2C, while the peptide mimicking the entire segment of Gab2 binding both SH2 domains, and corresponding to Gab2_608–649, will be named Gab2T. To compare data with our previous works, the experiments were performed in buffer Hepes 50 mM, NaCl 300 mM, 2 mM DTT, pH 7.2, at 10 °C, by following the FRET signal occurring through the excitation of the tryptophan residues in the NSH2-CSH2 tandem with light at 280 nm and following the change in fluorescence of the dansyl group covalently attached to the N-terminus of the peptides. […]
Kinetic experiments of binding between the NSH2, CSH2 and NSH2-CSH2 tandem and the peptides mimicking different portions of Gab2 were measured by monitoring FRET between the tryptophan, acting as a donor, and a dansyl group covalently attached to the N-terminus of the peptides, acting as acceptor. […] The excitation wavelength used was 280 nm while the fluorescence emission was collected using a 475 nm cutoff glass filter. […]

The target of assay [2] is T2, NSH2-CSH2 tandem of SHP2 (Homo sapiens, UniProt Q06124).
T2 construct: The constructs encoding the isolated NSH2 domain, the isolated CSH2 domain, and the NSH2-CSH2 tandem were subcloned in a pET28b+ plasmid vector; made in house; host or cells: Escherichia coli BL21 (DE3)
T2 sequence (Q06124 1-220 limits assumed): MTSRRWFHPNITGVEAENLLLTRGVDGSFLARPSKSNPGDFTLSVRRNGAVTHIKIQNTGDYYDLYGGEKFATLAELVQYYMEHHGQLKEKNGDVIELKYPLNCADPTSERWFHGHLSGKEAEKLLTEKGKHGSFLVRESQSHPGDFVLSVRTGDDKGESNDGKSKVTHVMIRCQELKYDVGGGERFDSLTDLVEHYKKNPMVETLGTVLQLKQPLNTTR
In words: Kinetic displacement of peptide from NSH2-CSH2 tandem by Gab2T. Conditions: for rate constant in displacement by Gab2T: pH 7.2, 10 °C. The assay is classed as binding. The source says: (§1) In analogy to our previous works, we performed kinetic binding experiments by challenging the NSH2-CSH2 tandem with peptides mimicking different portions of Gab2, namely Gab2_608–620 (binding the NSH2 domain) and Gab2_637–649 (binding the CSH2 domain). From now on, the two peptides will be named, respectively, Gab2N and Gab2C, while the peptide mimicking the entire segment of Gab2 binding both SH2 domains, and corresponding to Gab2_608–649, will be named Gab2T. To compare data with our previous works, the experiments were performed in buffer Hepes 50 mM, NaCl 300 mM, 2 mM DTT, pH 7.2, at 10 °C, by following the FRET signal occurring through the excitation of the tryptophan residues in the NSH2-CSH2 tandem with light at 280 nm and following the change in fluorescence of the dansyl group covalently attached to the N-terminus of the peptides.
We also resorted to monitoring the binding reaction between the NSH2-CSH2 tandem with the Gab2T peptide. […] To obtain information about the ability of the NSH2-CSH2 to bind Gab2T, we performed kinetic displacement experiments in order to test the ability of Gab2T to displace Gab2N and Gab2C. […] These two values are in great agreement with what was previously calculated in binding experiments of the isolated domains.
Kinetic experiments of binding between the NSH2, CSH2 and NSH2-CSH2 tandem and the peptides mimicking different portions of Gab2 were measured by monitoring FRET between the tryptophan, acting as a donor, and a dansyl group covalently attached to the N-terminus of the peptides, acting as acceptor. […] The excitation wavelength used was 280 nm while the fluorescence emission was collected using a 475 nm cutoff glass filter. […] The observed rate constants were calculated from the average of 3–6 single traces and by fitting the time-course for binding using a single exponential equation y=Aexp−kobs t+c where A is the amplitude of the kinetic trace, kobs the observed rate constant and c the final fluorescence value of the trace. […]

Assay [3] addresses T2, NSH2-CSH2 tandem of SHP2. In words: Kinetic binding (stopped-flow, FRET Trp-dansyl) to the NSH2-CSH2 tandem. Conditions: for kon (microscopic association rate constant): Hepes 50 mM, NaCl 300 mM, 2 mM DTT.
Description: as §1
First, to test whether the presence of the contiguous CSH2 affected the affinity of the NSH2 domain for Gab2, we mixed a constant concentration of dansylated Gab2N (1 µM) vs. increasing concentrations of NSH2-CSH2 (ranging from 2 µM to 9 µM). The obtained observed rate constant (kobs) as a function of the concentration of the NSH2-CSH2 tandem was fitted with a linear equation, the slope corresponding to the microscopic association rate constant (kon) and the intercept with the y-axis to the microscopic dissociation rate constant (koff). To directly measure the koff, we performed displacement experiments by rapidly mixing a preincubated complex of NSH2-CSH2 with dansylated Gab2N (both at a constant concentration of 2 µM) versus a high excess of non-dansylated Gab2N (50 µM).
We also resorted to monitoring the binding reaction between the NSH2-CSH2 tandem with the Gab2T peptide. […] To obtain information about the ability of the NSH2-CSH2 to bind Gab2T, we performed kinetic displacement experiments in order to test the ability of Gab2T to displace Gab2N and Gab2C. Thus, in two separate experiments, we rapidly mixed a preincubated complex of NSH2-CSH2 with Gab2N (both at a constant concentration of 2 µM) versus an excess of Gab2T (50 µM) and a preincubated complex of NSH2-CSH2 with Gab2C (both at constant concentrations of 2 µM and 10 µM, respectively) versus an excess of Gab2T (50 µM) (Figure 5C). Importantly, in the two experiments, we could calculate two different rate constants, respectively, of 1.2 ± 0.3 s^−1 in the case of Gab2N, and 82 ± 1 s^−1 in the case of Gab2C. These two values are in great agreement with what was previously calculated in binding experiments of the isolated domains.
Kinetic experiments of binding between the NSH2, CSH2 and NSH2-CSH2 tandem and the peptides mimicking different portions of Gab2 were measured by monitoring FRET between the tryptophan, acting as a donor, and a dansyl group covalently attached to the N-terminus of the peptides, acting as acceptor. The experiments were performed on a single-mixing SX-18 stopped-flow instrument (Applied Photophysics, Leatherhead, UK) recording the change of dansyl emission. The excitation wavelength used was 280 nm while the fluorescence emission was collected using a 475 nm cutoff glass filter. The binding experiments were carried out at 25 °C mixing a constant concentration of dansylated peptide (1 μM) versus increasing concentrations of NSH2, CSH2 and NSH2-CSH2 (ranging from 2 to 10 μM). The buffer used was Hepes 50 mM, NaCl 300 mM, pH 7.2. The observed rate constants were calculated from the average of 3–6 single traces and by fitting the time-course for binding using a single exponential equation y=Aexp−kobs t+c where A is the amplitude of the kinetic trace, kobs the observed rate constant and c the final fluorescence value of the trace. The dependences of kobs as a function of ligand concentrations were fitted with a linear equation kobs=kon ligand+koff where kon is the microscopic association rate constant, and koff the microscopic dissociation rate constant.

“Gab2C: peptide mimicking Gab2_637–649 (binding the CSH2 domain)”: the “binding to isolated NSH2 domain, kinetic traces” value in assay [1] (NSH2 domain mixed with different concentrations of Gab2C peptide) is listed as “no kinetic traces could be recorded”. Besides, the “rate constant in displacement by Gab2T” value in assay [2] (preincubated NSH2-CSH2 (2 µM) with Gab2C (10 µM) vs excess Gab2T (50 µM)) was 82 ± 1 s⁻¹.

In the case of “Gab2N: peptide mimicking Gab2_608–620 (binding the NSH2 domain); used dansylated at the N-terminus and non-dansylated”, the “koff (microscopic dissociation rate constant)” value amounted to 1.8 ± 0.1 s⁻¹ in assay [1] (isolated NSH2 domain, pH 7.2) and 1.8 ± 0.1 s⁻¹ in assay [3] (displacement of preincubated NSH2-CSH2/dansylated Gab2N (both 2 µM) by excess non-dansylated Gab2N (50 µM), pH 7.2, 10 °C). Moreover, the “kon (microscopic association rate constant)” value in assay [3] (dansylated Gab2N 1 µM vs NSH2-CSH2 2 to 9 µM, no Gab2C, pH 7.2, 10 °C, excitation 280 nm, average of 3–6 traces) stood at 3.73e+07 ± 800000 M⁻¹ s⁻¹; in assay [3] (dansylated Gab2N vs NSH2-CSH2, in the presence of 10 µM Gab2C, pH 7.2, 10 °C), 1.64e+07 ± 200000 M⁻¹ s⁻¹; in assay [3] (dansylated Gab2N vs NSH2-CSH2, in the presence of 20 µM Gab2C, pH 7.2, 10 °C), 1.44e+07 ± 200000 M⁻¹ s⁻¹. Further, the “KD, calculated as koff/kon, tandem compared to isolated NSH2 domain” value in assay [3] (no Gab2C, pH 7.2) is listed as “lower KD”. Besides, in assay [2] (preincubated NSH2-CSH2 with Gab2N (both 2 µM) vs excess Gab2T (50 µM)), the “rate constant in displacement by Gab2T” value stood at 1.2 ± 0.3 s⁻¹.

In the case of “Gab2T: peptide mimicking the entire segment of Gab2 binding both SH2 domains, corresponding to Gab2_608–649 (STGSVDYLALDFQPSSPSPHRKPSTSSVTSDEKVDYVQVDKE; UniProt Q9UQC2 608-649, looked up, fragment)”, the “kinetic binding to NSH2-CSH2, fluorescence change” value in assay [3] (Gab2T not available in dansylated form) is “did not return any change in fluorescence”. In addition, the “displacement of Gab2N and Gab2C from NSH2-CSH2” value in assay [2] (Gab2T 50 µM, pH 7.2) is recorded as “able to displace both peptides”.
